Measurements reported in IntAct's records for PubMed 23523103.

Target: hsp7c_human HSPA8 (UniProt P11142)

effect of a mutation on the interaction: increasing interaction
Substance: L-lactate dehydrogenase A chain (Homo sapiens) (from UniProt P00338) K5Q
